Experimental data from the supplement of paper PMC10567573.

B1: WSB1 (parent)
chain: FSHDGLHVASLADDKMVRFWRIDE
B2: SNX8 (parent)
chain: LHQETQLIHVYLPLTSHILRAFVN

Variants of: B1
Assay: protein stability index of a GFP-peptide fusion (GPS, HEK-293T) (PSI 1-6); higher = more stable
Conditions: c terminus: a fixed tail appended
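Further: lentivirally expressed fusions sorted by FACS into six bins by GFP to DsRed ratio, PSI derived from sequencing read proportions per bin multiplied by bin number.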

Protein stability index, by site and new letter:
I22: H 2.31 | F 1.63
W20: S 2.7 | G 2.79 | N 2.66 | Y 2.26
E24: V 2.12 | W 2.56
H7: R 3.03
G5: A 1.92 | P 1.81 | T 2.27 | K 1.96
A9: L 2.62
S10: D 2.03
R18: C 1.43 | M 2.37
F19: W 1.57
V8: I 1.92 | N 1.68
D14: P 2.05
R21: A 1.39 | C 3.2
L11: A 2.24 | M 1.69 | P 1.47
A12: V 1.75
D13: R 1.42 | A 1.02
D23: G 2.25
H3: G 2.95
S2: M 3.12 | V 2.64

Variants of: B2
Assay: as above
Conditions: c terminus: a fixed tail appended

Protein stability index, by site and new letter:
V23: D 2.39 | I 1.96 | H 2.58 | Y 3.02 | L 2.22 | A 3.31 | S 2 | W 3.24 | F 2.14 | T 3.16 | M 2.4 | Q 2.27 | P 2.03 | E 2.79
I8: E 2.44 | M 3.01 | W 2.6 | R 1.78 | C 2.87 | D 2.22 | Q 1.68 | S 2.03 | V 1.45 | T 2.1 | L 1.67 | N 2.09 | Y 4.04 | K 2.3 | P 1.65 | A 2.03 | F 2.5 | G 1.42
Q6: D 2.01 | V 3.73 | E 2.88 | K 1.7 | N 1.6 | I 2.75 | G 2.55 | F 2.33 | L 3.52 | W 3.31 | P 2.41 | C 2.63 | M 2.2 | R 3.29 | S 2.04 | H 2.75
S16: C 2.36 | Y 2.08 | N 2.52 | V 1.81 | M 2 | A 1.94 | R 2.83 | Q 2.5 | W 2.31 | E 2.16 | K 2.77 | L 2.08 | H 1.82 | I 1.47
P13: V 1.85 | K 1.72 | M 2.55 | D 2.7 | Y 1.95 | A 3.59 | L 3.99 | H 1.38 | R 2.29 | W 3.14 | S 3 | Q 2.68 | T 2.91 | I 1.9
T15: W 2.9 | Y 1.79 | R 2.25 | P 2.3 | M 1.58 | K 3.35 | N 3.74 | Q 1.75 | C 2.46 | G 1.2 | I 2.85 | D 3.4 | A 2.23 | V 4.03 | F 1.58 | L 1.86 | H 3.58
L14: A 2.98 | P 2.64 | M 2.41 | C 3.23 | Q 3.75 | N 4.27 | W 1.8 | T 2.29 | V 3.59 | F 1.31 | D 2.72 | S 2 | K 3.14 | R 2.49 | Y 1.58 | G 3.49 | H 2.13
L19: T 1.84 | W 1.57 | E 2.23 | K 2.47 | S 2.3 | I 3.22 | Y 3.67 | N 1.99 | P 3.45 | F 3.61 | A 2.99 | V 4.01 | D 1.52 | G 3.75 | C 2.66 | H 2.24 | Q 5.08
L7: I 2.73 | C 2.44 | E 1.87 | H 1.98 | A 2.53 | D 2.17 | N 2.1 | S 2.37 | M 2.9 | R 4 | Q 2.71 | T 3.64 | K 2.32 | G 2.15 | Y 1.91 | P 3.31
R20: N 3.03 | I 2.9 | P 3 | L 3.82 | T 1.72 | A 3.61 | M 3.04 | V 1.72 | H 2.95 | G 3.27 | Q 1.89 | C 2.94 | Y 3.11 | D 1.93
H9: M 2.9 | N 2.43 | E 1.65 | A 2.16 | L 3.18 | T 2.96 | V 3.08 | C 3.65 | W 2.31 | P 2.22 | Y 3.11 | I 2.82 | K 1.43 | S 2.4 | G 3.08
F22: Y 4.5 | G 2.88 | M 1.52 | C 3.79 | K 2.21 | D 2.12 | P 3.46 | H 1.96 | S 2.14 | N 1.92 | L 2.39 | I 1.79 | Q 2.57 | R 2.4 | V 2.75
N24: V 3.76 | H 5.51 | K 2.06 | A 2.76 | S 2.59 | Q 2.93 | D 2.94 | Y 2.88 | F 3.69 | T 2.16 | L 2.37
L12: Q 3.42 | Y 3.18 | E 1.83 | N 2.08 | P 2.21 | S 1.7 | T 2.49 | K 2.29 | H 3.23 | M 2.71 | V 1.91 | W 3.2 | G 3.44 | C 2.52 | R 2.48 | F 2.58 | D 2.19
A21: Q 2.01 | D 2.8 | P 2.84 | T 1.84 | F 1.38 | R 2.63 | I 3.77 | M 3.49 | C 2.73 | Y 2.35 | N 3.01 | K 2.03 | W 2.18 | E 2.48
T5: V 4.08 | R 2.75 | P 1.66 | N 3.51 | Y 1.85 | W 2.22
V10: M 2.22 | A 1.19 | G 1.51 | H 1.66 | E 2.87 | T 1.73 | R 2.21 | D 1.87 | P 1.76 | S 2.33 | W 2.2 | N 1.88 | Q 1.71 | Y 2.24 | K 1.23
H17: T 1.85 | F 3.82 | L 1.69 | S 3.54 | P 2.34 | M 2.52 | C 1.58 | D 2.58 | W 3.19 | R 2.42 | A 2.06 | I 2.46 | N 2.47 | G 1.77 | Q 2.97 | Y 2.6 | V 1.92 | E 2.75
I18: W 2.33 | Y 2.39 | R 2.44 | L 3.11 | H 2.63 | C 3.75 | G 1.71 | Q 2.27 | V 3.55 | M 1.88 | F 1.93 | N 1.79 | D 2.65 | T 2.89 | A 1.85 | K 1.97 | S 3.95 | P 3.99
Y11: S 1.91 | M 3.64 | A 2.63 | T 1.89 | D 1.47 | R 1.86 | L 2.05 | V 1.99 | K 2.95 | Q 3.1 | C 3.22 | F 2.14 | N 2.81 | P 2.78 | G 2.29
